± gives the standard error. This sample holds only a part of the variants without activity.
B1: glmS ribozyme (parent)
chain: AUAAAAGCGCCAGAACUACAGAAAUGUAGUUGACGAGGAGGAGGUUUAUCGAAUUUUCGGCGGAUGCCUCCAAA

Key:
Settings in all cases: with glucosamine-6-phosphate
[1] = variants of: B1; experiment: self-cleavage kobs at 640 uM GlcN6P; higher = faster cleavage; RNA array
Method in brief: (§1)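 Using a hybridised Cy3 probe at 37 °C, barcoded ribozyme variants transcribed in situ by E. coli RNA polymerase on sequenced MiSeq chips were monitored across tiles imaged over ~14 h. The flow contained glucosamine-6-phosphate from 40 μM to 10 mM in HEPES/KCl/Mg(OAc)2 buffer. Signals were normalised to baseline and to non-cleaving reference variants before per-tile medians were fit to one- or two-exponential decays to yield kobs. Weighted Michaelis–Menten fits across concentrations gave kcat and KM.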

[2] = variants of: B1; experiment: self-cleavage kobs at 2500 uM GlcN6P; higher = faster cleavage; RNA array
Method in brief: as §1

[3] = variants of: B1; experiment: self-cleavage kobs at 10000 uM GlcN6P; higher = faster cleavage; RNA array
Method in brief: as §1

| Variant | self-cleavage kobs at 640 uM GlcN6P [1] | self-cleavage kobs at 2500 uM GlcN6P [2] | self-cleavage kobs at 10000 uM GlcN6P [3] |
| --- | --- | --- | --- |
| AUAAAUGCGCCAGAACUACAGAAAUGUAGUUGACGAGGAGGAGGCUUAUCGAAUUUUCGGCGGAUGCCUCUAAA [A6U U45C C71U] | < 1e-05 s⁻¹ | < 1e-05 s⁻¹ | – |
| AUAAAAACGUCAGAAUUACAGAAAUGUAGUUGACGAGGAGGAGGUUUAUCGAAUUUUCGGCGGACGCCUCCAAA [G7A C10U C16U U65C] | < 1e-05 s⁻¹ | – | – |
| AUAAAACCCCCAGAACUACAGAAAUGUAGUUGACGAGGAGGAGAUUUAUCGAAUUUUCGGCGGAUGCCUCCAAA [G7C G9C G44A] | < 1e-05 s⁻¹ | – | < 1e-05 s⁻¹ |
| AUAAAAACGCCCGAACUACAGAAAUGUAGUUGACGAGGAGGAGGUUUACCGAAUUUUCGGCAGAUGCCUCCAAA [G7A A12C U49C G62A] | < 1e-05 s⁻¹ | < 1e-05 s⁻¹ | – |
| AUAAAACCUCCAGAACUACAGAAAUGUAGUUGACGAGGAGGAGGUUUAUCGAAUUUUCGGCCGAUGCCUCCAAA [G7C G9U G62C] | < 1e-05 s⁻¹ | – | – |
| AUAAAACCGCCAGAACUACAGAAAUGUAGUUGACGAGGAGUAGGUUUAUCGAAUUUUCGGCGGAUGGCUCCAAA [G7C G41U C67G] | < 1e-05 s⁻¹ | – | – |
| AUAAAUGCGCCAGAACUACAGAAAUGUAGUUGACGAGGAGGAUGUUUAUCGAAUUUUCGGUGGAUGCCUCUAAA [A6U G43U C61U C71U] | < 1e-05 s⁻¹ | < 1e-05 s⁻¹ | – |
| AUAAAAACGCCAGAACUACAGAAAUGUAUUUGAUGAGGAGGAGGUUUAUCGAAUUUUCGGCGGAUGCCUCCAAA [G7A G29U C34U] | < 1e-05 s⁻¹ | – | – |
| AUAAAUGCGCCAGAACUACAGAAAUGUAGUUGACGAGCAGGAGGUUUAUCGAAUUUUCGGUGGAUGCCUCCAAA [A6U G38C C61U] | < 1e-05 s⁻¹ | – | – |
| AUAAAAUCGCCGGAAUUACAGAAAUGUAGUUGACGAGGAGGAGGUUUAUCGAAUUUUCGGCGGAUGCCUCCAAA [G7U A12G C16U] | < 1e-05 s⁻¹ | < 1e-05 s⁻¹ | – |
| AUAAAAACGCCAGAACUACAGAAAUGUAGUUGGCGAGGAGGAGGUUUAUCGAAUUUUCGGCGGAUGCGUCCAAA [G7A A33G C68G] | 0.00031 ± 0.00013 s⁻¹ | 6.13e-05 ± 2.5e-05 s⁻¹ | – |
| AUAAAUGCGCCAGAACUACAGAAAUGUAGUUGACUAGGAGGAUGUUUAUCGAAUUUUCGGCGGAUGCCUCCAAA [A6U G35U G43U] | < 1e-05 s⁻¹ | < 1e-05 s⁻¹ | – |
| AUAAAAACGCCACGACUACAGAAAUGUAGUUGACGAGGAGGAGGUUUAUCGAAUUUUCGGCGGAUGCCGCCAAA [G7A G13C A14G U69G] | < 1e-05 s⁻¹ | < 1e-05 s⁻¹ | – |
| AUAAAAACGCCAGAACUACAGAAAUGUAGUUGACGAGGGGGAGGUUUACCGAAUUUUCGGCGGAUGCCACCAAA [G7A A39G U49C U69A] | < 1e-05 s⁻¹ | < 1e-05 s⁻¹ | < 1e-05 s⁻¹ |
| AUAAAAACGCCAGAACUACAGAAAUGUAGUUGACGAAGAGGAGGUUUAUCGAAUUUUCGGCGGAUUCCUCCAAA [G7A G37A G66U] | < 1e-05 s⁻¹ | < 1e-05 s⁻¹ | – |
| AUAAAAAUGCCAGAACUACAGAAAUGUAGUCGACGAGGAGGAGGUUUAUCGCAUUUUCGGCGGAUGCCUCCAAA [G7A C8U U31C A52C] | < 1e-05 s⁻¹ | < 1e-05 s⁻¹ | – |
| AUAAAACCGCCAGAACUACAGAAAUGUAGUUGACGAGGAGGAGGUUUAUCGAAUUUUCGGCGGUUUCCUCCAAA [G7C A64U G66U] | < 1e-05 s⁻¹ | – | – |
| AUAAAACCUCCAGAACUACAGAAAUGUAGUUGACGAGGGGGAGGAUUAUCGAAUUUUCAACGGAUGUUUCCAAA [G7C G9U A39G U45A G59A G60A C67U C68U] | < 1e-05 s⁻¹ | – | – |
| AUAAAUGCGCCAGAACUACAGAAAUGUAGUUGACGAGGAGGAGGUUUAUCGAAUGUUCCGCGGAUGCCCCCAAA [A6U U55G G59C U69C] | 0.000135 ± 5.3e-05 s⁻¹ | 5.57e-05 ± 2.7e-05 s⁻¹ | – |
| AUAAAAUCGCCAGAACUACAGAAAUGUAGUUGACGAGGGGGAGGUUUUUCGAAUUUUCGGCGGAUGCCUCCAAA [G7U A39G A48U] | < 1e-05 s⁻¹ | – | – |
| AUAAAAACGCCAGAACUACAGAAAUGUAGUUGACGAGGCGGAGGUUUAUCGAAUUGUCGGCGGAUGCGUCCAAA [G7A A39C U56G C68G] | < 1e-05 s⁻¹ | < 1e-05 s⁻¹ | – |
| AUAAAACCGCCCGAACUACAGAAAUGUAGUUAACGAGGAGGAGGUUUAUAGAAUUUUCGUCGGAUGCCUCCAAA [G7C A12C G32A C50A G60U] | < 1e-05 s⁻¹ | – | – |
| AUAAAAACGCCAGAACUACAGAAAUGUAGUUGCCGAGGUGGAGGUUUAUCGAAUUUUCGGCGGAUGCCUCCAAA [G7A A33C A39U] | < 1e-05 s⁻¹ | – | – |
| AUAAAAUCGGCACAACUACAGAAAUGUAGUUGACGAGGAGGAGAUUUAUCGAAUUUUCGGCGGAUGCCGCCAAA [G7U C10G G13C G44A U69G] | < 1e-05 s⁻¹ | – | – |

| Variant | self-cleavage kobs at 640 uM GlcN6P [1] | self-cleavage kobs at 2500 uM GlcN6P [2] | self-cleavage kobs at 10000 uM GlcN6P [3] |
| --- | --- | --- | --- |
| AUAAAAACGCCAGAACUACAGAAAUGUAGUUGAUUAAGAAGAGGUUUAUCGAAUUUUCGGCGGAUGCCUCCAAA [G7A C34U G35U G37A G40A] | < 1e-05 s⁻¹ | < 1e-05 s⁻¹ | – |
| AUAAAACCGCCAGAACUACAGAAAUGUAGUUGACGAGGAGGAUGUUUAUCGAAUUUUCGGCGGUUGCCUCCAAA [G7C G43U A64U] | < 1e-05 s⁻¹ | – | – |
| AUAAAAAGGCCAGUACUACAGAAAUGUAGUUGACGAGGAGGAGGUUUAUCGAAUUUUCGGCGGAGGCCUCCAAA [G7A C8G A14U U65G] | < 1e-05 s⁻¹ | < 1e-05 s⁻¹ | < 1e-05 s⁻¹ |
| AUAAAAUCGCCCGAACUACAGAAAUGUAGUUGACGAGGAGGAGGUUUACCGAAUUUUCGGCGGAUGCCUCCAAA [G7U A12C U49C] | < 1e-05 s⁻¹ | – | – |
| AUAAAACCGCCAGAACUACAGAAAUGUAGUUGACGAGGAGGUGGUUUAUCGAUUUUUCGGCGGAUGGCUCCAAA [G7C A42U A53U C67G] | < 1e-05 s⁻¹ | – | – |
| AUAAAAACGCCAGAACUACAGAAAUGUAGUUGCCGAGGAGGAGGUUUAUCGAAUUUUCGGCGGAUCCCUCCAAA [G7A A33C G66C] | < 1e-05 s⁻¹ | – | – |
| AUAAAAACGCCAGAACUACAGAAAUGUAGUUGACGAGGAGGAGUUUUAUCGAAUUUUCGGCGGAUGGCUCCAAA [G7A G44U C67G] | < 1e-05 s⁻¹ | – | – |
| AUAAAAACGCCAGAACUACAGAAAUGUAGUUGACGAGGAGGAGGUUUAUCAAAUUUUAGGCGGAUGCCUCCAAA [G7A G51A C58A] | < 1e-05 s⁻¹ | < 1e-05 s⁻¹ | – |
| AUAAAAACGCCAGAACUACAGAAAUGUAGUUGACGAGGCGGAGGUUUAUCGAAUUUUCGGCGGAUGCCUCCAAA [G7A A39C] | < 1e-05 s⁻¹ | < 1e-05 s⁻¹ | – |
| AUAAAACCGCCAGAACUACAGAAAUUUAUUUGACGAGGAGGAGGUUUAUCGAAUUUCCGGCGGUCGCCUCCAAA [G7C G26U G29U U57C A64U U65C] | < 1e-05 s⁻¹ | – | – |
| AUAAAACCGCCAGAACUACAGAAAUGUAGUUCACGAGGAGGAGGUUUAUCGAAUUUUCAGCGGAUGCCUCCAAA [G7C G32C G59A] | < 1e-05 s⁻¹ | – | – |
| AUAAAAUCGCCAGAACUACAGAAAUGUAGUUGACGAGGAGGAGGUUUAUCGAAUUUUCGGCGGUUGCCUCCAAA [G7U A64U] | < 1e-05 s⁻¹ | – | < 1e-05 s⁻¹ |
| AUAAAACCGCGAGAACUACAGAAAUGUAGUUGACGAGGAGAAGGUUUAUCGAAUUUUCGGCGGAUGCCUCCAAA [G7C C11G G41A] | < 1e-05 s⁻¹ | < 1e-05 s⁻¹ | – |
| AUAAAAUCGCCAGAUCUACAGAAAUGUAGUUGACGAGGAGGAGCUUUAUCGAAUUUUCGGCGGAUGCCUCCAAA [G7U A15U G44C] | < 1e-05 s⁻¹ | < 1e-05 s⁻¹ | – |
| AUAAAAACGCCACAACUACAGAAAUGUAGUUGACGAGGAGGAGGUUUAUCGAAUUUUCGGCUGAUGCCUCCAAA [G7A G13C G62U] | < 1e-05 s⁻¹ | – | – |
| AUAAAAACGCCAGAACUACAGAAAUGUAGUUGACGAGGUGGAGGUUUAUCGACUUUUCGGCGGCUGCCUCCAAA [G7A A39U A53C A64C] | < 1e-05 s⁻¹ | – | – |
| AUAAAAACGCCAGAACUACAGAAAUGUAGUUGACGAGGAGGAGGUUUCUCGAAUUUUCGGCGGAUGCCGCCAAA [G7A A48C U69G] | < 1e-05 s⁻¹ | < 1e-05 s⁻¹ | – |
| AUAAAAAUGCCAUACCUACAGAAAUGUAGUUGACGAGGCGGAGGUUUAUCGAAUGUACGGCGGAUGCCUCCAAA [G7A C8U G13U A15C A39C U55G U57A] | < 1e-05 s⁻¹ | – | – |
| AUAAAACCUCGAGAAGUACAGAAAUGUAGGUGACGAGGAGGAUUUUUAUCGAAUUUUCGGUGGAUGCCUCCAAA [G7C G9U C11G C16G U30G G43U G44U C61U] | < 1e-05 s⁻¹ | < 1e-05 s⁻¹ | < 1e-05 s⁻¹ |
| AUAAAACCGCCAGAACUACAGAAAUGUACUUGACGAGGAGGAGGUUUAUCGAAUUUUCGGCGGAUGGCUCCAAA [G7C G29C C67G] | < 1e-05 s⁻¹ | < 1e-05 s⁻¹ | – |
| AUAAAAUCGCCAGAACUACAGAAAUGUAGUUGACGAGGAGGAGGUUUUUAGAAUUUUCGGCGGAUGGCUCCAAA [G7U A48U C50A C67G] | 0.000229 ± 8.3e-05 s⁻¹ | – | – |
| AUAAAAACGCCAGAACUACAGAAAUGUAGUUAACGAGGAGGAGGUUUAGCGAAUUUUCGGCGGAUGCCUCCAAA [G7A G32A U49G] | < 1e-05 s⁻¹ | – | – |
| AUAAAUGCGCCAGAACUACAGAAAUGUAGUUGACAAGGAGGAUGUUUAUCGAAUUUUCGGCGGAUGCCUCCAAA [A6U G35A G43U] | < 1e-05 s⁻¹ | < 1e-05 s⁻¹ | – |

— the supplement of paper PMC7125110
